Test [1] deals with T1, recombinant derivative of the LukE protein (SEQ ID NO: 826) with amino-terminal poly-histidine affinity tag (UniProt Q2FXB0 24-306).
T1 chain: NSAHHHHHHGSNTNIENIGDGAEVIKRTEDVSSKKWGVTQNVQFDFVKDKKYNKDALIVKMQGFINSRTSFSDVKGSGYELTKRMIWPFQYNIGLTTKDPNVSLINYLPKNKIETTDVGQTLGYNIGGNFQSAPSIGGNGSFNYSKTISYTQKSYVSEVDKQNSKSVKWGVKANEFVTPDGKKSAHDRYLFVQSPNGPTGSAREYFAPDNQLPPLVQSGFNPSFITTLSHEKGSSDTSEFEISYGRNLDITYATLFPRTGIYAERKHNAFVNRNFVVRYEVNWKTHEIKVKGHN
The test is described as follows: BLI; Step E (after SM1B332), left panel.

The target of test [2] is T2, recombinant toxoid variant of the LukAB protein (LukA E323A) with poly-histidine and streptavidin binding … (UniProt Q2FFA2 31-351; P21224 30-338).
T2 chain 1: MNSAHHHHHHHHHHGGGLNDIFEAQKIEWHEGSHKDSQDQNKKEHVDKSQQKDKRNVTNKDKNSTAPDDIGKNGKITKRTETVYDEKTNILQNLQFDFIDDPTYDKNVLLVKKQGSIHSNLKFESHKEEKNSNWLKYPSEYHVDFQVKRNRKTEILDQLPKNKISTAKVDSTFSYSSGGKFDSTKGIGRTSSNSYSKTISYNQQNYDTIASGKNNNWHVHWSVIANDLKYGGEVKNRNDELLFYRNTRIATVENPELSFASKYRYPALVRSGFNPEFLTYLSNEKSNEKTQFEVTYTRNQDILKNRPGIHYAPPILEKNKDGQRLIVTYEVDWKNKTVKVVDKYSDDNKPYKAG
T2 chain 2: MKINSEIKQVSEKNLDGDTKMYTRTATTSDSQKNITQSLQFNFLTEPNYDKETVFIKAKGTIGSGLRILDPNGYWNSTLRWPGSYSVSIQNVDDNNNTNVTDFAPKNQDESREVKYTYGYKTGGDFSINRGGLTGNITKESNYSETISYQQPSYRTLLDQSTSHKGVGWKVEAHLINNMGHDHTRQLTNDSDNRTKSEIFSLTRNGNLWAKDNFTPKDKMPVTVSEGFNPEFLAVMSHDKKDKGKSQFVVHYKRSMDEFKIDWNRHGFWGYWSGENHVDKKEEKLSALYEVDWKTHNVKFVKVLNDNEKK
The test is described as follows: BLI; Step C (first mAb).

Test [3] deals with T2, recombinant toxoid variant of the LukAB …. The test is described as follows: BLI; Step E (after SM1B249).
Test [4] shares this target. The test is described as follows: BLI; Step E (after SM1B245).
For test [5], the target named is T3, recombinant derivative of the LukD protein (SEQ ID NO: 824) with amino-terminal polyhistidine affinity tag, … (UniProt Q2FXB1 27-327, chemically biotinylated in vitro (sites not given)).
T3 chain: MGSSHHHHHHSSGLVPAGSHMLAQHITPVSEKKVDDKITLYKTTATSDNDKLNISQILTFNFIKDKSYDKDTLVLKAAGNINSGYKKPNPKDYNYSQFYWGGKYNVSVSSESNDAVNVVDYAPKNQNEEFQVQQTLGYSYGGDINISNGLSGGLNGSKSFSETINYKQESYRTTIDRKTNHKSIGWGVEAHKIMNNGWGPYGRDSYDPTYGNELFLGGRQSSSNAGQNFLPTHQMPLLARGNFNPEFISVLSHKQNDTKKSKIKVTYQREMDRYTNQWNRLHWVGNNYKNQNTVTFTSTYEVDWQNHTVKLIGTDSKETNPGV
Description: BLI; Step E (after SM1B221).

In test [6] the target is T1, recombinant derivative of the LukE …. The test is described as follows: BLI; Step C (first mAb), left panel.
For test [7] the target is unchanged. Description: BLI; Step C (first mAb), right panel.
Test [8] shares this target. Description: BLI; Step E (after SM1B332), right panel.

B1: anti-LukE mAb SM1B318 (antibody, V domains shown)
VH: QVQLQQSGAELMNPGASVKISCKSTGYKFSSYWIEWVKQRPGHGLEWMGEILPGSGSTNHNEKFKGKAIFTADASSNTAYMELSSLTSEDSAVYYCARTISTATDWFAYWGQGTLVTVSA
VL: DVLMTQTPLSLPVSLGDQASISCRSSQTIVYSDGNTYLEWYLQKPGQSPKLLIYKVSNRFSGVPDRVSGSGSGTDFTLKISRVEAEDLGVYYCFQGSHVPYTFGGGTKLEIKR
As to B1, the Kd in test [1] was 5.04 nM.

B2: anti-LukAB mAb SM1B245 (antibody, V domains shown)
VH: QVQLQQSGAELAKPGASVKMSCKSSGYTFSTYWMHWVKQRPGQGLEWIGYINPNTGYTEYNQKFKDTATLTADKSSSTAYMQLSSLTSEDSAVYYCARGGSKAFPYYAMDYWGQGTSVTVSS
VL: DIVLTQSPASLAVSLGQRATMSCRASESVDGYGNSFLHWYQQKPGQPPKLLIYRASNLESGIPARFSGTGSRTDFTLTITPVEADDVATYYCQQSNGDPFTFGSGTKLEIKR
Consider B2, for which the Kd in test [2] stood at 0.656 nM; in test [3], 1.31 nM; in test [4], 11.5 nM.

B3: antibody SM1B225 (antibody, V domains shown)
VH: EVQLQQSGGGLVKPGGSLKLSCAASGFTFSSYAMSWVRQTPEKRLEWVATITGGGTYTYYLDSVKGRFTISRDNAKTSLYLQMSSLRSEDTAMYYCARHRDGNYGCFDVWGAGTTVTVSS
VL: DIVLTQSPAIMSASLGERVTMTCTASSSVSSSYLHWYQQKPGSSPKLWVYSTSNLASGVPARFSGSGSGSSYSLTISSMEPEDTATYYCHQYHRSPQTFGGGTKLEIKR
Turning to B3, the Kd in test [5] was 4.67 nM.

B4: anti-LukE mAb SM1B332 (antibody, V domains shown)
VH: QVQLKESGPGLVAPSQSLSITCTVSGLSLTSYGLSWVRQPPGKGLEWLGVIWGDGSTNYHSALISRLSISKDNSKSQVFLKLNSLQSDDTATYYCATRGDYGSYAMDYWGQGTSVTVSS
VL: QIVLTQSPAIMSASPGEKVTLTCSASSSVSSSYLFWYQQKPGSSPKLWIYSTSNLASGVPVRFSGSGFGTSYSLTISRMEAEDAASYFCHQWSSYPPTFGAGTKLELKR
On to B4, for which the Kd in test [6] is 1.38 nM; in test [7] it was 1.47 nM; in test [1] it was 4.9 nM; in test [8], 4.9 nM.

B5: anti-LukAB mAb SM1B111 (antibody, V domains shown)
VH: EVQLQQSGAELVKPGASVKISCKASGYAFSSSWMNWLKQRPGKGLEWIGRIYPGDGDTNYNGKFKGKATLTADKSSSTAYMQLSSLTSEDSAVYFCARYGYDYDGEYYYAMDYWGQGTSVTVSS
VL: DIVMTQSPTTMAASPGERITITCSAHSNLISNYLHWYQQKPGFSPKLLIYRTSNLASGVPARFSGSGSGTSYSLTIGTMEAEDVATYFCQQGSSIPFTFGSGTKLEIKR
For the molecule B5, the Kd in test [4] was found to be 4.53 nM.

B6: anti-LukE mAb SM1B507 (antibody)
heavy: EVQLQQSGAELVKPGASVKMSCKASGYTFTDYYMDWVKQSHGKSFEWIGHVNPYNGDTRYNQKFKGKATLTVDKSSTTAYMELNSLTSEDSAVYYCARGNFFDYWGQGTTLSVSSAKTTPPSVYPLAPGSAAQTNSMVTLGCLVKGYFPEPVTVTWNSGSLSSGVHTFPAVLESDLYTLSSSVTVPSSPRPSETVTCNVAHPASSTKVDKKIVPRDCGCKPCICTVPEVSSVFIFPPKPKDVLTITLTPKVTCVVVDISKDDPEVQFSWFVDDVEVHTAQTQPREEQFNSTFRSVSELPIMHQDWLNGKEFKCRVNSAAFPAPIEKTISKTKGRPKAPQVYTIPPPKEQMAKDKVSLTCMITDFFPEDITVEWQWNGQPAENYKNTQPIMNTNGSYFVYSKLNVQKSNWEAGNTFTCSVLHEGLHNHHTEKSLSHSPGK
light: DIVMTQSPAIMSASPGEKVTIPCSASSSVSYMHWFQQKPGTSPKLWIYSTSNLASGVPGRFSGSGSGTSYSLTISRMEAEDAATYYCQQRSNYPLTFGAGTKLELKRADAAPTVSIFPPSSEQLTSGGASVVCFLNNFYPKDINVKWKIDGSERQNGVLNSWTDQDSKDSTYSMSSTLTLTKDEYERHNSYTCEATHKTSTSPIVKSFNRNEC
Take B6: the Kd in test [8] amounted to 3.52 nM.

The values above are taken from patent US20200317758A1 (published 2020).
